Reference: US20240317834A1, “COMPOSITIONS AND METHODS FOR NEUROLOGICAL DISEASES” (CODA BIOTHERAPEUTICS, INC., priority 2020, published 2024)
Where a chain is given by its changes, count along the chain named. Names may count otherwise.

System: Lenti-X 293T cells
Assay: YFP fluorescence quenching anion reporter plate reader assay of engineered receptors stimulated with acetylcholine or a non-native ligand
Assay type: cell-based
Details: for percent quench of YFP fluorescence, 10 uM ach: acetylcholine 10 uM; for percent quench of YFP fluorescence, 30 uM ach: acetylcholine 30 uM; for percent quench of YFP fluorescence, 100 uM ach: acetylcholine 100 uM; for percent quench of YFP fluorescence, 300 uM ach: acetylcholine 300 uM; for percent quench of YFP fluorescence, 1 mM ach: acetylcholine 1 mM; for percent quench of YFP fluorescence, 3 mM ach: acetylcholine 3 mM
Method in brief: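 Lenti-X 293T cells carrying a YFP anion reporter were transiently transfected with channel DNA and assayed the next day in HEPES-buffered ECS at pH 7.2. Ligand (acetylcholine or non-native ligand) was added in NaI-substituted ECS. Percent quench was the mean of the last 10 s relative to the 15 s pre-addition baseline.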

B1: CODA1138: engineered chimeric LGIC receptor, W77F, R101F, L131D in SEQ ID NO: 33 (protein)
chain: MRCSPGGVWLALAASLLHVSLQGEFQRKLYKELVKNYNPLERPVANDSQPLTVYFSLSLLQIMDVDEKNQVLTTNIFLQMSWTDHYLQWNVSEYPGVKTVFFPDGQIWKPDILLYNSADERFDATFHTNVDVNSSGHCQYLPPGIFKSSCPMDLKNFPMDVQTCKLKFGSWSYGGWSLDLQMQEADISGYIPNGEWDLVGIPGKRSERFYECCKEPYPDVTFTVTMRRRMGYYLIQMYIPSLLIVILSWISFWINMDAAPARVGLGITTVLTMTTQSSGSRASLPKVSYVKAIDIWMAVCLLFVFSALLEYAAVNFVSRQHKELLRFRRKRRHHKSPMLNLFQEDEAGEGRFNFSAYGMGPACLQAKDGISVKGANNSNTTNPPPAPSKSPEEMRKLFIQRAKKIDKISRIGFPMAFLIFNMFYWIIYKIVRREDVHNQ
modifications: synthetic sequence of chimeric LGIC
With B1 the “YFP fluorescence quenching using CNL001” value (1 nM CNL001, first column) was −6.175%, the “YFP fluorescence quenching using CNL001” value (1 nM CNL001, second column) was 5.89% and the “YFP fluorescence quenching using CNL002” value (1 nM CNL002) was −2.209%. For the same molecule, the “YFP fluorescence quenching using Varenicline” value (3 nM var, first column) was 3.893, the “YFP fluorescence quenching using Varenicline” value (3 nM var, second column) was 1.107 and the “YFP fluorescence quenching using CNL001” value (10 nM CNL001, first column) was −2.032%. The “YFP fluorescence quenching using CNL001” value (10 nM CNL001, second column) was 7.601%, the “YFP fluorescence quenching using CNL002” value (10 nM CNL002) was 43.044% and the “YFP fluorescence quenching using Varenicline” value (30 nM var, first column) was 0.972. For the same molecule, the “YFP fluorescence quenching using Varenicline” value (30 nM var, second column) was 0.872, the “YFP fluorescence quenching using CNL001” value (50 nM CNL001, first column) was 9.263% and the “YFP fluorescence quenching using CNL001” value (50 nM CNL001, second column) was 4.423%. For the same molecule, the “YFP fluorescence quenching using CNL002” value (50 nM CNL002) was 73.418%, the “YFP fluorescence quenching using ABT-126” value (50 nM abt) was −11.71% and the “YFP fluorescence quenching using CNL001” value (100 nM CNL001, first column) was 24%. For the same molecule, the “YFP fluorescence quenching using CNL001” value (100 nM CNL001, second column) was 30.448%, the “YFP fluorescence quenching using CNL002” value (100 nM CNL002) was 81.66% and the “YFP fluorescence quenching using ABT-126” value (100 nM abt) was −5.13%. The “YFP fluorescence quenching using ABT-126” value (300 nM abt) was 15.09%, the “YFP fluorescence quenching using Varenicline” value (300 nM var, first column) was 2.282 and the “YFP fluorescence quenching using Varenicline” value (300 nM var, second column) was −0.288. For the same molecule, the “YFP fluorescence quenching using Varenicline” value (500 nM var, first column) was 3.637, the “YFP fluorescence quenching using Varenicline” value (500 nM var, second column) was −1.804 and the “YFP fluorescence quenching using CNL001” value (1 uM CNL001, first column) was 73.823%. The “YFP fluorescence quenching using CNL001” value (1 uM CNL001, second column) was 73.271%, the “YFP fluorescence quenching using CNL002” value (1 uM CNL002) was 81.69% and the “YFP fluorescence quenching using ABT-126” value (1 uM abt) was 56.63%. For the same molecule, the “YFP fluorescence quenching using Varenicline” value (1 uM var, first column) was −1.84, the “YFP fluorescence quenching using Varenicline” value (1 uM var, second column) was 6.36 and the “YFP fluorescence quenching using ABT-126” value (10 uM abt) was 75.93%. The “percent quench of YFP fluorescence, 10 uM ach” value was −12.92%, the “percent quench of YFP fluorescence, 30 uM ach” value was −15.36% and the “percent quench of YFP fluorescence, 100 uM ach” value was −19.35%. For the same molecule, the “percent quench of YFP fluorescence, 300 uM ach” value was −14.79%, the “percent quench of YFP fluorescence, 1 mM ach” value (from here on “percent quench … 1 mM ach”) was 37.5% and the “percent quench of YFP fluorescence, 3 mM ach” value (“percent quench … 3 mM ach” below) was 61.73%.

B2: CODA1157: engineered chimeric LGIC receptor, Q139E, S172D in SEQ ID NO: 33 (protein)
chain: B1 chain with F77W, F101R, D131L, Q139E, S172D
modifications: synthetic sequence of chimeric LGIC
In the case of B2, the “YFP fluorescence quenching using CNL001” value (1 nM CNL001, first column) is reported as 68.362%, the “YFP fluorescence quenching using CNL001” value (1 nM CNL001, second column) is reported as 69.495% and the “YFP fluorescence quenching using Varenicline” value (3 nM var, first column) is reported as −0.225. For the same molecule, the “YFP fluorescence quenching using Varenicline” value (3 nM var, second column) was −1.954, the “YFP fluorescence quenching using CNL001” value (10 nM CNL001, first column) was 75.078% and the “YFP fluorescence quenching using CNL001” value (10 nM CNL001, second column) was 74.193%. The “YFP fluorescence quenching using Varenicline” value (30 nM var, first column) was 1.269, the “YFP fluorescence quenching using Varenicline” value (30 nM var, second column) was 5.972 and the “YFP fluorescence quenching using CNL001” value (50 nM CNL001, first column) was 77.481%. For the same molecule, the “YFP fluorescence quenching using CNL001” value (50 nM CNL001, second column) was 77.205%, the “YFP fluorescence quenching using ABT-126” value (50 nM abt) was −26.77% and the “YFP fluorescence quenching using CNL001” value (100 nM CNL001, first column) was 77%. The “YFP fluorescence quenching using CNL001” value (100 nM CNL001, second column) was 77.042%, the “YFP fluorescence quenching using CNL002” value (100 nM CNL002) was 80.62% and the “YFP fluorescence quenching using ABT-126” value (100 nM abt) was −24.64%. For the same molecule, the “YFP fluorescence quenching using ABT-126” value (300 nM abt) was −10.64%, the “YFP fluorescence quenching using Varenicline” value (300 nM var, first column) was 6.84 and the “YFP fluorescence quenching using Varenicline” value (300 nM var, second column) was 5.943. For the same molecule, the “YFP fluorescence quenching using Varenicline” value (500 nM var, first column) was 8.717, the “YFP fluorescence quenching using Varenicline” value (500 nM var, second column) was 6.41 and the “YFP fluorescence quenching using CNL001” value (1 uM CNL001, first column) was 78.2%. The “YFP fluorescence quenching using CNL001” value (1 uM CNL001, second column) was 76.244%, the “YFP fluorescence quenching using CNL002” value (1 uM CNL002) was 81.32% and the “YFP fluorescence quenching using ABT-126” value (1 uM abt) was 19.57%. The “YFP fluorescence quenching using Varenicline” value (1 uM var, first column) was 5.635, the “YFP fluorescence quenching using Varenicline” value (1 uM var, second column) was 7.068 and the “YFP fluorescence quenching using ABT-126” value (10 uM abt) was 55.64%. For the same molecule, the “percent quench of YFP fluorescence, 10 uM ach” value was −36.89%, the “percent quench of YFP fluorescence, 30 uM ach” value was −37.78% and the “percent quench of YFP fluorescence, 100 uM ach” value was −25.67%. For the same molecule, the “percent quench of YFP fluorescence, 300 uM ach” value was −18.94%, the “percent quench … 1 mM ach” value was 16.38% and the “percent quench … 3 mM ach” value was 45.71%.

B3: CODA1173: engineered chimeric LGIC receptor, S172D, Y210W in SEQ ID NO: 33 (protein)
chain: B1 chain with F77W, F101R, D131L, S172D, Y210W
modifications: synthetic sequence of chimeric LGIC
In the case of B3, the “YFP fluorescence quenching using CNL001” value (1 nM CNL001, first column) is reported as 16.321%, the “YFP fluorescence quenching using CNL001” value (1 nM CNL001, second column) is reported as 30.264% and the “YFP fluorescence quenching using Varenicline” value (3 nM var, first column) is reported as 9.211. The “YFP fluorescence quenching using Varenicline” value (3 nM var, second column) was 7.193, the “YFP fluorescence quenching using CNL001” value (10 nM CNL001, first column) was 61.978% and the “YFP fluorescence quenching using CNL001” value (10 nM CNL001, second column) was 65.343%. For the same molecule, the “YFP fluorescence quenching using Varenicline” value (30 nM var, first column) was 7.821, the “YFP fluorescence quenching using Varenicline” value (30 nM var, second column) was 9.078 and the “YFP fluorescence quenching using CNL001” value (50 nM CNL001, first column) was 73.006%. The “YFP fluorescence quenching using CNL001” value (50 nM CNL001, second column) was 74.903%, the “YFP fluorescence quenching using ABT-126” value (50 nM abt) was 5.15% and the “YFP fluorescence quenching using CNL001” value (100 nM CNL001, first column) was 76%. The “YFP fluorescence quenching using CNL001” value (100 nM CNL001, second column) was 76.759%, the “YFP fluorescence quenching using CNL002” value (100 nM CNL002) was 70.15% and the “YFP fluorescence quenching using ABT-126” value (100 nM abt) was 25.08%. The “YFP fluorescence quenching using ABT-126” value (300 nM abt) was 66.86%, the “YFP fluorescence quenching using Varenicline” value (300 nM var, first column) was 6.933 and the “YFP fluorescence quenching using Varenicline” value (300 nM var, second column) was 8.36. For the same molecule, the “YFP fluorescence quenching using Varenicline” value (500 nM var, first column) was 5.501, the “YFP fluorescence quenching using Varenicline” value (500 nM var, second column) was 7.04 and the “YFP fluorescence quenching using CNL001” value (1 uM CNL001, first column) was 76.928%. The “YFP fluorescence quenching using CNL001” value (1 uM CNL001, second column) was 76.619%, the “YFP fluorescence quenching using CNL002” value (1 uM CNL002) was 77.33% and the “YFP fluorescence quenching using ABT-126” value (1 uM abt) was 66.94%. For the same molecule, the “YFP fluorescence quenching using Varenicline” value (1 uM var, first column) was 7.174, the “YFP fluorescence quenching using Varenicline” value (1 uM var, second column) was 5.185 and the “YFP fluorescence quenching using ABT-126” value (10 uM abt) was 78.67%. The “percent quench … 1 mM ach” value was −6.12% and the “percent quench … 3 mM ach” value was 11.31%.
